Results from paper PMC9188544, “Mechanism of glycogen synthase inactivation and interaction with glycogenin” (Nature Communications, 2022).
Changes are numbered by the printed parent chain. In names and notes the source's numbering stands.

Key:
Experiment in all cases: co-purification (HisTrap, TEV cleavage, Ni subtraction, Superdex200 gel filtration); GS WT or mutant co-expressed with GN(Y195F) in insect cells, both with N-terminal His6-TEV; lysate loaded on the HisTrap column
Settings in all cases: partners not purified
[1] = molecular target: T1, human glycogen synthase 1 (GS1) W18A (human, UniProt P13807 1-737, W18A, phosphorylation at S8, S641 and S641/S645 probed by immunoblot (Fig. 4b))
T1 construct: glycogen synthase 1 (muscle), human, encoded by GYS1, cDNA NM 002103; also called GS W18A; not shown: His6, N-terminal, cleaved
T1 sequence (looked up): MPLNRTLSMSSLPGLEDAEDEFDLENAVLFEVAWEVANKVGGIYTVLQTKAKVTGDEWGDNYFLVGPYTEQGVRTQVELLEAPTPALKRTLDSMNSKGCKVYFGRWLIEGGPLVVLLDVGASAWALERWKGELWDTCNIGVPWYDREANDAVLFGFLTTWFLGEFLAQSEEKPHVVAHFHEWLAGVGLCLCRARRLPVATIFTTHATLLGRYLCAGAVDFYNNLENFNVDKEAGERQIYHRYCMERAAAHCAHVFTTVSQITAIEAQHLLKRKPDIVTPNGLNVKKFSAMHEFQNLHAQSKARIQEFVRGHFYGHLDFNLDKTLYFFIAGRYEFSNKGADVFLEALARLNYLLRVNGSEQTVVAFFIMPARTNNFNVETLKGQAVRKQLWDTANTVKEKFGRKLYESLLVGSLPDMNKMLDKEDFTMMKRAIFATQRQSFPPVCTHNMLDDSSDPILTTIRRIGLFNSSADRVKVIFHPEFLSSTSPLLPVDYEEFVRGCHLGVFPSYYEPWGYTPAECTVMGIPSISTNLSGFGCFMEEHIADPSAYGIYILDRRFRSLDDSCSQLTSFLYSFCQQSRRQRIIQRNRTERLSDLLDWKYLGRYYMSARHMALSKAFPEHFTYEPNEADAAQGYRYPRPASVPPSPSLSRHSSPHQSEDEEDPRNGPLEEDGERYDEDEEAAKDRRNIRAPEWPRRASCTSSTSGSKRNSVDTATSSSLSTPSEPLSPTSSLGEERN

[2] = molecular target: T2, human glycogen synthase 1 (GS1) R588A + R591A (human, UniProt P13807 1-737, R588A | R591A, phosphorylation at S8, S641 and S641/S645 probed by immunoblot (Fig. 4b))
T2 construct: glycogen synthase 1 (muscle), human, encoded by GYS1, cDNA NM 002103; also called GS R588A + R591A double mutant; not shown: His6, N-terminal, cleaved
T2 sequence (looked up): T1 sequence (looked up) with A18W, R588A, R591A

[3] = molecular target: T3, human glycogen synthase 1 (GS1) Y600A (human, UniProt P13807 1-737, Y600A, phosphorylation at S8, S641 and S641/S645 probed by immunoblot (Fig. 4b))
T3 construct: glycogen synthase 1 (muscle), human, encoded by GYS1, cDNA NM 002103; also called GS Y600A; not shown: His6, N-terminal, cleaved
T3 sequence (looked up): T1 sequence (looked up) with A18W, Y600A

binding result [1]: binds
binding result [2]: binds
binding result [3]: binds
B1: human glycogenin 1 (GN1) Y195F, full length, non-glucosylated (enzyme, UniProt P46976-2 1-333, looked up)
chain: MTDQAFVTLTTNDAYAKGALVLGSSLKQHRTTRRLVVLATPQVSDSMRKVLETVFDEVIMVDVLDSGDSAHLTLMKRPELGVTLTKLHCWSLTQYSKCVFMDADTLVLANIDDLFDREELSAAPDPGWPDCFNSGVFVYQPSVETYNQLLHLASEQGSFDGGDQGILNTFFSSWATTDIRKHLPFIYNLSSISIFSYLPAFKVFGASAKVVHFLGRVKPWNYTYDPKTKSVKSEAHDPNMTHPEFLILWWNIFTTNVLPLLQQFGLVKDTCSYVNVEDVSGAISHLSLGEIPAMAQPFVSSEERKERWEQGQADYMGADSFDNIKRKLDTYLQ
notes: glycogenin 1, human, encoded by GYG1, cDNA NM 001184720, full length; expected ~37.5 kDa; the C-terminal GN34 region is modelled as residues 300-332, which fits the 333-residue isoform; Cloned in pFL (with untagged GS) and in pFastBac (co-infected with His6-TEV-GS WT or mutants); Both carry an N-terminal His6 tag and a cleavable site, so they are treated as one molecule; also called GN(Y195F); GN …
